# According to the domain aggregation screens of Martell et al. (2025):
# Experiment: soluble fraction after stress (log2 fold change); higher = more stays soluble; pooled small domains, quantitative proteomics
# Settings: stress: pH 4
# Outline: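 Pooled custom libraries of small protein domains were subjected to pH 4 and measured by high-throughput quantitative proteomics. The log2 fold change in soluble amount per domain is reported, higher values meaning more remained soluble. This is used as a measure of aggregation propensity.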
row,Sequence,soluble fraction (log2)
1,HMNREEFLSQLERLLYDIPAQEREEALEYYNGYFDDAGKEKEAEVIQELGSPGKVAAIIKADLSG,-0.605
2,HMYPFSEETLKEKIREYLKTNRSINRRVLEREFYIRKQTALNWLNRLVDSGFLIKEGVRNSPVYFLAE,0.26
3,HMHHDDHNQQEEIKEKLLAMVADGERHHVTEVRQLDEDWDMVTKVMKELMDEEQLLMDGSYLILSA,-0.551
4,HMEHDTVLSKVFRRLREAHVPLSLDDIYQGLRKTVNNNSEIREKIVTLQERGLVAEILGPKGGKKYVAKPT,0.199
5,HMDLMKKTLTKEMLLIDFMKQQFPDSSTNKLRKMLSSGRVKINNLITHKAKSQLKLGDIFELANKPHD,0.124
6,HMSNGYVTAKTTVNVRKSASESGERLGVIYQGDKLELVMNQADGWTKVKYKGQTAYVKSEFM,0.161
7,HMYELREGDVVSVRILSQTGQNSYIASFAGGRFSVTSERAFAPGTVFSASVSLKDGTLVLSPL,0.0111
8,HMEVAVQFIEFKIPENHAWIGKEIREITFPPESILVLIIRDGKKLVPNGKTVLKEGDSLILSGKASD,-1.61
9,HMSAMSPTEVGERLRLAREAVRMTQKQAADAISVARTTLVAIEQGQRRVRIDELQQLAKTYGVSVNAILR,0.27
10,HMGPTGGLTPHIAIADKRASEAIEFYKQAFGAVEQVRMPAEDGVRLMHAHLLVNGSSLMMHDDFPEYSGQ,0.0087
11,HMQEPNYQPLMQNIKSQDLEEVTRLLSLNDVKFKIDHRTGLLLVESSRVYEAKMKLAATGITD,-1.15
12,HMVDQAFQTQLKNIQARTGKNLDELYAFIRASGLVKHGEIRDLAKRELSLGHGDANTLAKFYLESLAAAA,-0.103
13,HMGNTLAYSEFRQKVQEGAVKQVVLSEDRVTGELTNGDRFTANIVRDPELLKMLNDNNVKYDGKPT,-0.0484
14,HMRPDSFEAGEAEAGSRLDRLLAARLGIPRNQVQQWIGGGRVTVDAEPVRASLVVRAGMRIAWDPPPPP,0.0905
15,HMDILEVLIKKDLAMELLEQLTERQRTVVYLRYFYQLNQKEIADYLGISQQRVSEILSRAKAVLTAYTKK,-0.878
16,HMTSDYEPSEKDEKAVIGIAFLRNTDVYDVDIDKAEAIKALKANNDIYQKFVKFFPFVKLPSLYDDFQ,-0.109
17,HMSGIVPAAPPLRPDLDIKWHTGDKVRHAKWGEGTIVSVKGEGEETELKIAFPGQGIRPFMQKYAPITR,0.214
18,HMKPGYVIQVNGTVTKIQSGLVYVKTPAAQYTLMRKYAPADAAVGDRVSLWINEEGMVIDVHGK,-0.671
19,HMGAQINSPISGTILKYLVKNGDKITKDQPLVNIESMKMENTIKSDKEGIVNNINFKIGDSVNTADTLLTL,0.22
20,HMGAQKITIPDFSNQEATQVYAELKNMGLEYTESRMNHPSIASGYVIKTEPTKGSEVKAGTTVTVYVSLG,-0.128
21,HMAMDSGELEAIVDRLISEHPDDWAALTAGDDRERKKKSGFFVGEVMKATRGQADGRAVIELLASRSA,-0.605
22,HMSVDIWTGAQTGNIEAVKQHLADGVDVNSKSDIGRTALDVAIAFKQPLITDLLRKHGGKTRDELKAAE,-0.397
23,HMLANLNKELQNDAALLKQKAQGNSNLLAKIQDVEQQMKQVNTSSASDEAKAKELQTLQRKLTAYKKALA,-0.0638
24,HMEFYYSDLVGMIVYDTGGNELGKVQAVLNHGAGDLLEIHGVNLKTSILIPFTKEAVPTVDIAARRIVTDP,0.00543
25,HMTVLSKEEFVAIEQRLLQLLGTAPVDNKILLQQLSGIKKEKAWKVLSFLQAENKIGMDATGRVYL,-0.697

row,Sequence,soluble fraction (log2)
1,HMFDLDIEQIANDLKHGVMPNLYGLSLQDALYLLEAKGIRVKVAGSGSVVNQSIKTGAYVGSGSVLKLEL,-0.833
2,HMASAKTVAQSGTYKFAKTTAIKSSASDAASTVGTYYKGNTVNYNAKVTTNGQTWLRYTSYSGAQYYVKVS,0.218
3,HMDLPGIVTETDRQRADLAARIGAAKVEAVLAGGARSVEADEDFDADTRRELHQFLTRMARRAFLEER,-0.722
4,HMIMQTTSDRINQRMRDLGLQHKDLVAATGASKGTVTNWINGVNNPTGKRLVQLAQALKTTSSWLLTGN,-0.0389
5,HMSSIRDVVPEGLLSDREKLVLVLAFDRDLDGPDMARTLGISANTVRVLKARALKKLRQAGIQP,-0.34
6,HMTNKKIILEIFQNSDKPLIVEEISKKMFEKTGKKMILSTIYRNLKNMEDVGILKKIYNEDGSYMYIF,-1.07
7,HMQIDRLFDIVYTLLRKKSATAAELAERFGVSKRTILRDIETLSVAGIPILTSPGKGGGVSISSSF,-0.423
8,HMSYQADEIKEKLIDILQNQKTGLSGLEISERIGINRITMTKYLQVFAAEGFIKQKNIGNVIIWFIEDGTE,-0.8
9,HMKMTIEDLITQAKESNAAENYYEAFQLYSKAIDVLPNDPDLYSARGVVLFHLDRKEDSLIDMNKSVD,-0.879
10,HMKILVTDDNIRIDKYLTTQTEYSRSTIQKMIESNNILVNNKPTKSNYILRNNDEITIDENFNEE,-0.0512
11,HMTAPELSVGDYLEYRGKEYKVESLDMDGFITLTDTALEDAPRLISRVTFLTDEFIRSGEYMVIT,-1.4
12,HMATRLPFGFAKRFGVLVEGKDDQITVYHKDGLQTAVILEIQRYLARPFRFEAVTPEEFERRLGLAYQS,-0.927
13,HMDIASNQIQGIKDSVGGDENYSKMVAWALESLPAEEVKAFNDLTETANAPAIKMAVQGLYSQYNNAM,-0.9
14,HMKNIINLVIDGELHGKRIDAVIAQKNDSLSRTRIKNLVINGNLSINDEIVSDPSKKIYKDDKVSLTIPLP,-0.085
15,HMLTSIDQMLKLAMPDSDITVSKMNGLILLTGTVKAPEDAAEAERLVQAFSAPPPGQPPVTVVSRLRTA,0.22
16,HMEKKEWVIYITGAVKKPGVYRIPEGARVYQALEAAGGFTPEADRDAVNLAAMLQDGAHIKFPAVGEEV,0.0865
17,HMGKAVTLEEARAIIQAKVPGASPDMIQIWEEHGDGRGRYEGELSYNNMKYEFEMDPKTGIIFDWNA,-0.189
18,HMLTDAAAVKRSVRNLVQYGFYEKPFHPEIGSGVRDLLFENMTPFVANNLSKQIEEIITNYEPRA,-0.126
19,HMNVDLLEARIPIQSHGMRLDQVVAELFPDYSRNRLAAWIKEGRLTVDGKTMKPRDRALASAHVVLEVV,-0.197
20,HMVGEQISYIPLKFATASEVVKSLTSMFQQQKGIAPIRIVAEERTNAILLLASEADTARVKNLIAMMDKGV,-0.0978
21,HMGLSARIAQRIHGLRTAQRMSLEALAARSGVSRSMISLIERNEASPTAVVLEKIATGLNVVLAALFDTP,-0.324
22,HMNNVDIMGRMVYDDQHREVINFGKYKGVLVTEVLKKDPGYFSWIQQGDFPSDMKRIMMAIKLRM,-0.72
23,HMETYPINVETTGTNVLLRTGPSTSSNIIKTITDKGTVFLSIERGINSDWQKVVTPDGTIGYMSGKY,-0.314
24,HMTMTIEITVNGKTKTLVAELSLADLLRDLGMTKGRIAVELNGHIVPRSQFSSKTISNLDSIEIVQ,0.138
25,HMALKQADFDFIRQMIQQRAAIVLDDNKHYFVESRLGPVVEETGSKSLDQLIDQLRSSSNSLLQQKVTEAI,-0.324

row,Sequence,soluble fraction (log2)
1,HMKEIATKSELTYFIQRLLDLLEETNFFNPEERKKAMINHIEAIFRRNNLTLQELNMLHGIITSITR,-1.38
2,HMNDQLIYSDFIRQVQDGQITEVTISGLNIAGTRSDGSVFNTLRPYIEDPKLIDDLLSHNVRIQGAE,-0.632
3,HMSLRVIEIFGTPQQMSARISLMDGSVTDVKVGQSIPGTSYKVASITGNGVWIQNGTAVSYTHL,0.00817
4,HMSHGYVEMQAKDDQVLLAALKNHPWFEKVSIDEETGLTKAILTQPIEAEELNSMLFEKGIVLSHLVKRK,-1.2
5,HMADRVFGHIPGVAVGSIFPDRRSLSQTGVHRPTQAGISGNKTDGADSIVVSGGYRDDRDYGDLIIYTG,-0.746
6,HMEMTEDEITKQFDAMEREAKKEIDTGADKRAFMYGVSRTAAGMAGKNPKYARFITDKAKEVIENIAKYK,0.207
7,HMRNANENTLKDLPVAVPNIHVSNIEEKKDFHLIQLEYSQEFDPREDLFNFAVNSSWVILKMTPT,≥ 0.43
8,HMGVAAEDPDEAEKGAHSLKSSAANVGAEVVRGLAGEIESAASSGDVEAVRTILPGLEDAYSQAITDLET,0.133
9,HMKGKIYFFEEGVDRVGGVERVISTLANEFSKKYKVNVISFYKTRKETFFKYNSDIDITYLSK,-0.264
10,HMKSSYSGNFKQNVVEYMHNNHLSATETANHFKLGGGSVVLRWERIYYEEGPQALYEERRGR,0.144
11,HMGEAIPVPDIRHKSQADAERLLQDQGLAMMVTDTGYVKTLPANYILEQIPVAGEKVKSGHVVYVIINSG,0.0317
12,HMENYTYKYATSANVNIREEPNTDSTILGKTLLNTEFQVVEDVDGWSKITTEAGYAYIKSEYLSDTE,-0.392
13,HMDWREMTAWMAELLKRRTGDDVETWNARVRESGAHDEASLRAWLTEQGVTGYAQTLLVMERFGYPDFF,-1.67
14,HMQDLTAQQQAILSFLKEHPKATRKEISENIPNITEDNIRYNLSQLQELGFVKSMGDSFIRIAI,0.216
15,HMGMSQQKQSSTVRIIMQDISDANEGLMKMSQIIDAALAEGISETIVRNAISNLHRGGTIYESQTGTYQW,-0.392
16,HMNTEEKILEKEFLMLYSELGLQPKNIYELMENTGLKYEKLVEMLLQLQLKGLVEQPSYNYYSRL,-2.46
17,HMTKTEFLEALRRALNGNMAAASVEDNLKFYENYFYSEEAKGRSEAAVLSELGDPRILARTLIDAAER,-0.816
18,HMSTEAFLGTEGEVVLPLLPDGLGKIRLHVADQDVELPARTGGEPIQIRERVVVVRFRDGIAEVEPAP,-0.525
19,HMLPQYELIKQYLRHQIETGEWPIGYRTPSEPKLAEQFSVSRMTARRALQELADQGLLSRTAGSGTFVAKP,0.0856
20,HMTFKDIMENYTISRIENTINSAVVFLDEINAYITIDKTQLPSNLRYDTDSKIMASQIPDDAKIKYFMIYW,-1.61
21,HMRRFEFSDGSSNKFWQITRDGTSLTVTFGKIGTAGQTQLKELATEAAAIAEHDKLVKEKTKKGYAEVG,-0.157
22,HMNKSYTVPDVRGMTVEEAQEAEGVKDIFTVHVQGTRKTDEYQPGQIVEQDPIAGRTRKSNFVIEVYVAE,-0.237
23,HMPIHAGERLTLRLAGEGREAGQAIGYLEDGTLVIVERARHLIGQDVTVEVTRTLQTAGGRLVFAHLVE,-0.896
24,HMQHQSGLKSGEFEAISQQLQALLKENPLSLQEIKDKMQVTENHLIKVVSYLVSEEIIRQENGYLK,-1.67
25,HMVGMDRYFKIKNIKDSSAAFERDYILHFLKENDWMVSKTAQMIGLERTTLYKKIKQLGLASMLEN,-0.386
